Tests used:
Antibody No. 245.1 [1] = assay: peptide blocking ELISA on plate-bound VISTA, peptide 2 ug/mL
VSTB174 [2] = assay: as above
Antibody No. 465.1 [3] = target: T1, Antibody No. 465.1; assay: as above
T1 construct: also called Ab No. 465.1

Antibody No. 245.1 [4] = assay: peptide blocking ELISA on plate-bound VISTA, peptide 20 ug/mL
VSTB174 [5] = assay: as above
Antibody No. 465.1 [6] = target: T1, Antibody No. 465.1; assay: as above
[7] = target: T2, VISTA-His ECD (Sino Biological 13482-H08H) (human, UniProt Q9H7M9 33-194); assay: BLI (Octet K2), ratio of the pH 6.0 fold change to the pH 7.4 fold change
T2 construct: Bought protein; also called VISTA-ECD; not shown: His tag

[8] = target: T2, VISTA-His ECD (Sino Biological …); assay: BLI (Octet K2), ratio of off-rates at pH 7.4 to control Ab No. 245.1
rhFcRn (R&D) [9] = target: T3, rhFcRn (R&D) (human (printed as rhFcRn), UniProt P55899 24-297; P61769 21-119); assay: BLI Octet K2, antibody on FAB2G sensor, rhFcRn analyte (row of 800 nM), pH 6.0, 1:1 global fit
T3 construct: Bought reagent; also called neonatal Fc receptor; FcRn ligand

rhFcRn (R&D) [10] = target: T3, rhFcRn (R&D); assay: BLI Octet K2, antibody on FAB2G sensor, rhFcRn analyte (row of 200 nM), pH 6.0, 1:1 global fit
rhFcRn (R&D) [11] = target: T3, rhFcRn (R&D); assay: BLI Octet K2, antibody on FAB2G sensor, rhFcRn analyte (row of 50 nM), pH 6.0, 1:1 global fit
[12] = target: T4, hVISTA ECD-Fc R54A, F62A, Q63A (human); assay: ELISA on immobilized VISTA-Fc (5 µg/mL), antibody at 10 µg/mL
T4 construct: also called human VISTA-Fc 54A62A63A; triple VISTA-Fc mutant

Chain of VSTB174 (VH, as listed by the source, chain 1 of 2): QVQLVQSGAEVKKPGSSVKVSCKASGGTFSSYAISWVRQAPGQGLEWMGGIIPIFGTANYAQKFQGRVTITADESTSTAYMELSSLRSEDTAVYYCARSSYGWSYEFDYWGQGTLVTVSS
Chain of VSTB174 (VL, as listed by the source, chain 2 of 2): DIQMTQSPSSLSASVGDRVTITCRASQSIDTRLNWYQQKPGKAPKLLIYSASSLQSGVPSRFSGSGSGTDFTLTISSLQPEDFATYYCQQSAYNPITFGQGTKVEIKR

B1: Spiked Peptide 30 (CVVYPSSSQESENIT) (peptide)
peptide: CVVYPSSSQESENIT
notes: synthetic overlapping peptide from human VISTA
- percent reduction in ELISA signal (Antibody No. 245.1 [1]): 0%
- percent reduction in ELISA signal (VSTB174 [2]): 12%
- percent reduction in ELISA signal (Antibody No. 465.1 [3]): 0%
- percent reduction in ELISA signal (Antibody No. 245.1 [4]): 0%
- percent reduction in ELISA signal (VSTB174 [5]): 21%
- percent reduction in ELISA signal (Antibody No. 465.1 [6]): 0%

B2: Antibody No. 474.1 with VH Y32H, VH Y52H (antibody, V domains shown)
VH: QVQLQESGPGLVKPSETLSLTCTVSGGSISSHYWSWIRQPPGKGLEWIGYIHYSGSTNYNPSLKSRVTISVDTSKSQFSLKLSSVTAADTAVYYCARDIPAFAFDIWGQGTMVIVSS
VL: EIVLTQSPATLSLSPGERATLSCRASQSVSYYLAWYQQKPGQAPRLLIYDAFNRATGIPARFSGSGSGTDFTLTISSLEPEDFAVYYCQQRINWPLTFGGGTKVEIK
- ΔKdis (pH 6.0)/ΔKdis (pH 7.4) [7]: 3.4
- Kdis (pH 7.4) ÷ Kdis, Ab No. 245.1 (pH 7.4) [8]: 5 s⁻¹

B3: Antibody No. 474.1 with VL Y31H, VH Y52H (second of two rows so labelled, the 40th table r13) (antibody, human IgG1, V domains shown)
VH: QVQLQESGPGLVKPSETLSLTCTVSGGSISSYYWSWIRQPPGKGLEWIGYIHYSGSTNYNPSLKSRVTISVDTSKSQFSLKLSSVTAADTAVYYCARDIPAFAFDIWGQGTMVIVSS
VL: EIVLTQSPATLSLSPGERATLSCRASQSVSHYLAWYQQKPGQAPRLLIYDAFNRATGIPARFSGSGSGTDFTLTISSLEPEDFAVYYCQQRINWPLTFGGGTKVEIK
- ΔKdis (pH 6.0)/ΔKdis (pH 7.4) [7]: 3.8
- Kdis (pH 7.4) ÷ Kdis, Ab No. 245.1 (pH 7.4) [8]: 37 s⁻¹

B4: Antibody No. 474.1 with VL Y32H, VH Y52H (antibody, V domains shown)
VH: QVQLQESGPGLVKPSETLSLTCTVSGGSISSYYWSWIRQPPGKGLEWIGYIHYSGSTNYNPSLKSRVTISVDTSKSQFSLKLSSVTAADTAVYYCARDIPAFAFDIWGQGTMVIVSS
VL: EIVLTQSPATLSLSPGERATLSCRASQSVSYHLAWYQQKPGQAPRLLIYDAFNRATGIPARFSGSGSGTDFTLTISSLEPEDFAVYYCQQRINWPLTFGGGTKVEIK
- ΔKdis (pH 6.0)/ΔKdis (pH 7.4) [7]: 3.4
- Kdis (pH 7.4) ÷ Kdis, Ab No. 245.1 (pH 7.4) [8]: 45 s⁻¹

B5: Antibody No. 474.1 with VL Y31H, VH Y32H, VH Y33H (antibody, V domains shown)
VH: QVQLQESGPGLVKPSETLSLTCTVSGGSISSHHWSWIRQPPGKGLEWIGYIYYSGSTNYNPSLKSRVTISVDTSKSQFSLKLSSVTAADTAVYYCARDIPAFAFDIWGQGTMVIVSS
VL: EIVLTQSPATLSLSPGERATLSCRASQSVSHYLAWYQQKPGQAPRLLIYDAFNRATGIPARFSGSGSGTDFTLTISSLEPEDFAVYYCQQRINWPLTFGGGTKVEIK
- ΔKdis (pH 6.0)/ΔKdis (pH 7.4) [7]: 1.5
- Kdis (pH 7.4) ÷ Kdis, Ab No. 245.1 (pH 7.4) [8]: 68 s⁻¹

B6: Antibody No. 474.1 with VH Y32H, VH Y33H, VH Y52H (antibody, V domains shown)
VH: QVQLQESGPGLVKPSETLSLTCTVSGGSISSHHWSWIRQPPGKGLEWIGYIHYSGSTNYNPSLKSRVTISVDTSKSQFSLKLSSVTAADTAVYYCARDIPAFAFDIWGQGTMVIVSS
VL: EIVLTQSPATLSLSPGERATLSCRASQSVSYYLAWYQQKPGQAPRLLIYDAFNRATGIPARFSGSGSGTDFTLTISSLEPEDFAVYYCQQRINWPLTFGGGTKVEIK
- ΔKdis (pH 6.0)/ΔKdis (pH 7.4) [7]: 5.2
- Kdis (pH 7.4) ÷ Kdis, Ab No. 245.1 (pH 7.4) [8]: 14 s⁻¹

B7: Antibody No. 474.1 with VH Y32H, VH Y33H (antibody, V domains shown)
VH: QVQLQESGPGLVKPSETLSLTCTVSGGSISSHHWSWIRQPPGKGLEWIGYIYYSGSTNYNPSLKSRVTISVDTSKSQFSLKLSSVTAADTAVYYCARDIPAFAFDIWGQGTMVIVSS
VL: EIVLTQSPATLSLSPGERATLSCRASQSVSYYLAWYQQKPGQAPRLLIYDAFNRATGIPARFSGSGSGTDFTLTISSLEPEDFAVYYCQQRINWPLTFGGGTKVEIK
- ΔKdis (pH 6.0)/ΔKdis (pH 7.4) [7]: 6.9
- Kdis (pH 7.4) ÷ Kdis, Ab No. 245.1 (pH 7.4) [8]: 4 s⁻¹

B8: Antibody No. 474.1 with VL Y32H, VH Y32H, VH Y52H (antibody, V domains shown)
VH: QVQLQESGPGLVKPSETLSLTCTVSGGSISSHYWSWIRQPPGKGLEWIGYIHYSGSTNYNPSLKSRVTISVDTSKSQFSLKLSSVTAADTAVYYCARDIPAFAFDIWGQGTMVIVSS
VL: EIVLTQSPATLSLSPGERATLSCRASQSVSYHLAWYQQKPGQAPRLLIYDAFNRATGIPARFSGSGSGTDFTLTISSLEPEDFAVYYCQQRINWPLTFGGGTKVEIK
- ΔKdis (pH 6.0)/ΔKdis (pH 7.4) [7]: 1.8
- Kdis (pH 7.4) ÷ Kdis, Ab No. 245.1 (pH 7.4) [8]: 71 s⁻¹

B9: Antibody No. 474.1 with VL Y32H, VH Y32H, VH Y33H (antibody, V domains shown)
VH: QVQLQESGPGLVKPSETLSLTCTVSGGSISSHHWSWIRQPPGKGLEWIGYIYYSGSTNYNPSLKSRVTISVDTSKSQFSLKLSSVTAADTAVYYCARDIPAFAFDIWGQGTMVIVSS
VL: EIVLTQSPATLSLSPGERATLSCRASQSVSYHLAWYQQKPGQAPRLLIYDAFNRATGIPARFSGSGSGTDFTLTISSLEPEDFAVYYCQQRINWPLTFGGGTKVEIK
- ΔKdis (pH 6.0)/ΔKdis (pH 7.4) [7]: 2.4
- Kdis (pH 7.4) ÷ Kdis, Ab No. 245.1 (pH 7.4) [8]: 56 s⁻¹

B10: Antibody No. 474.1 with VL Y32H, VH Y33H (antibody, V domains shown)
VH: QVQLQESGPGLVKPSETLSLTCTVSGGSISSYHWSWIRQPPGKGLEWIGYIYYSGSTNYNPSLKSRVTISVDTSKSQFSLKLSSVTAADTAVYYCARDIPAFAFDIWGQGTMVIVSS
VL: EIVLTQSPATLSLSPGERATLSCRASQSVSYHLAWYQQKPGQAPRLLIYDAFNRATGIPARFSGSGSGTDFTLTISSLEPEDFAVYYCQQRINWPLTFGGGTKVEIK
- ΔKdis (pH 6.0)/ΔKdis (pH 7.4) [7]: 2.7
- Kdis (pH 7.4) ÷ Kdis, Ab No. 245.1 (pH 7.4) [8]: 52 s⁻¹

B11: Antibody No. 474.1 with VL Y31H, VH Y32H, VH Y52H (antibody, V domains shown)
VH: QVQLQESGPGLVKPSETLSLTCTVSGGSISSHYWSWIRQPPGKGLEWIGYIHYSGSTNYNPSLKSRVTISVDTSKSQFSLKLSSVTAADTAVYYCARDIPAFAFDIWGQGTMVIVSS
VL: EIVLTQSPATLSLSPGERATLSCRASQSVSHYLAWYQQKPGQAPRLLIYDAFNRATGIPARFSGSGSGTDFTLTISSLEPEDFAVYYCQQRINWPLTFGGGTKVEIK
- ΔKdis (pH 6.0)/ΔKdis (pH 7.4) [7]: 2
- Kdis (pH 7.4) ÷ Kdis, Ab No. 245.1 (pH 7.4) [8]: 61 s⁻¹

B12: Antibody No. 474.1 with VL Y31H, VH Y32H (antibody, V domains shown)
VH: QVQLQESGPGLVKPSETLSLTCTVSGGSISSHYWSWIRQPPGKGLEWIGYIYYSGSTNYNPSLKSRVTISVDTSKSQFSLKLSSVTAADTAVYYCARDIPAFAFDIWGQGTMVIVSS
VL: EIVLTQSPATLSLSPGERATLSCRASQSVSHYLAWYQQKPGQAPRLLIYDAFNRATGIPARFSGSGSGTDFTLTISSLEPEDFAVYYCQQRINWPLTFGGGTKVEIK
- ΔKdis (pH 6.0)/ΔKdis (pH 7.4) [7]: 5.8
- Kdis (pH 7.4) ÷ Kdis, Ab No. 245.1 (pH 7.4) [8]: 12 s⁻¹

B13: Antibody No. 474.1 with VL Y32H, VH Y32H (antibody, V domains shown)
VH: QVQLQESGPGLVKPSETLSLTCTVSGGSISSHYWSWIRQPPGKGLEWIGYIYYSGSTNYNPSLKSRVTISVDTSKSQFSLKLSSVTAADTAVYYCARDIPAFAFDIWGQGTMVIVSS
VL: EIVLTQSPATLSLSPGERATLSCRASQSVSYHLAWYQQKPGQAPRLLIYDAFNRATGIPARFSGSGSGTDFTLTISSLEPEDFAVYYCQQRINWPLTFGGGTKVEIK
- ΔKdis (pH 6.0)/ΔKdis (pH 7.4) [7]: 5.9
- Kdis (pH 7.4) ÷ Kdis, Ab No. 245.1 (pH 7.4) [8]: 15 s⁻¹

B14: Antibody No. 150.1 (antibody, human IgG1, kappa)
heavy: QVQLQESGPGLVKPSETLSLTCTVSGGSISSYYWSWIRQPPGKGLEWIGYIYYSGSTNYNPSLKSRVTISVDTSKSQFSLKLSSVTAADTAVYYCARDIPAFAFDIWGQGTMVIVSSASTKGPSVFPLAPSSKSTSGGTAALGCLVKDYFPEPVTVSWNSGALTSGVHTFPAVLQSSGLYSLSSVVTVPSSSLGTQTYICNVNHKPSNTKVDKKVEPKSCDKTHTCPPCPAPELLGGPSVFLFPPKPKDTLYITREPEVTCVVVDVSHEDPEVKFNWYVDGVEVHNAKTKPREEQYNSTYRVVSVLTVLHQDWLNGKEYKCKVSNKALPAPIEKTISKAKGQPREPQVYTLPPSRDELTKNQVSLTCLVKGFYPSDIAVEWESNGQPENNYKTTPPVLDSDGSFFLYSKLTVDKSRWQQGNVFSCSVMHEALHNHYTQKSLSLSPGK
light: not shown
notes: Human IgG1 with the YTE mutations (M252Y, S254T, T256E, EU numbering), kappa light chain; It is left out here; copies: 2 + 2
- Kd (rhFcRn (R&D) [9]): 84.1 nM
- koff (rhFcRn (R&D) [9]): 0.0192 s⁻¹
- kon (rhFcRn (R&D) [9]): 228000 M⁻¹ s⁻¹
- Kd (rhFcRn (R&D) [10]): 84.1 nM
- koff (rhFcRn (R&D) [10]): 0.0192 s⁻¹
- kon (rhFcRn (R&D) [10]): 228000 M⁻¹ s⁻¹
- Kd (rhFcRn (R&D) [11]): 84.1 nM
- koff (rhFcRn (R&D) [11]): 0.0192 s⁻¹
- kon (rhFcRn (R&D) [11]): 228000 M⁻¹ s⁻¹

B15: Spiked Peptide 31 (SSSQESENITAA) (peptide)
peptide: SSSQESENITAA
notes: as for B1
- percent reduction in ELISA signal (Antibody No. 245.1 [1]): 0%
- percent reduction in ELISA signal (VSTB174 [2]): 15%
- percent reduction in ELISA signal (Antibody No. 465.1 [3]): 0%
- percent reduction in ELISA signal (Antibody No. 245.1 [4]): 8%
- percent reduction in ELISA signal (VSTB174 [5]): 27%
- percent reduction in ELISA signal (Antibody No. 465.1 [6]): 5%

B16: Antibody No. 269.1 (antibody, human IgG1, kappa)
light: EIVLTQSPDFQSVTPKEKVTITCRASQSIGSSLHWYQQKPDQSPKLLIKYASQSISGVPSRFSGSGSGTDFTLTINSLEAEDAAAYYCHQSSSLPQTFGQGTKVEIKRTVAAPSVFIFPPSDEQLKSGTASVVCLLNNFYPREAKVQWKVDNALQSGNSQESVTEQDSKDSTYSLSSTLTLSKADYEKHKVYACEVTHQGLSSPVTKSFNRGEC
heavy: not shown
- binding result [12]: binds

Reference: patent US20240132593A1 (KINETA, published 2024)
